Test [1] deals with T1, human gastric inhibitory peptide receptor (GIPR) (human, UniProt P48546 22-466).
T1 sequence (looked up): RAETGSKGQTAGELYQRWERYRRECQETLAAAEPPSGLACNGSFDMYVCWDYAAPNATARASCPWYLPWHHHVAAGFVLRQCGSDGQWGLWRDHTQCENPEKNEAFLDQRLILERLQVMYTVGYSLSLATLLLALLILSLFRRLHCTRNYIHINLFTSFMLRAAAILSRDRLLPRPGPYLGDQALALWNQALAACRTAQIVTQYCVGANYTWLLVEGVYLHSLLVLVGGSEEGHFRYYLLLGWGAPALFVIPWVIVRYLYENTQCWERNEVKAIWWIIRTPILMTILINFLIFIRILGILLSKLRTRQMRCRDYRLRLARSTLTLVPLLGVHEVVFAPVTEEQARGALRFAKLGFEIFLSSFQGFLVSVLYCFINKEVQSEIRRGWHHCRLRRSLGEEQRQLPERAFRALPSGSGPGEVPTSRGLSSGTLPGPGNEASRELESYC
Briefly: cell-based or functional assay.

Test [2] deals with human GLP-1 receptor (GLP-1R) (human, UniProt P43220 24-463). Briefly: cell-based or functional assay.

Numbered stars: 1 amine (or outer) side, 2 acyl side, 3 side chain; on linkers, the order of the positions; unused ones are H or OH. Square brackets hold non-standard residues; d marks the D form. Side chains are listed from the residue outwards. Ends that are not written are not given here. * marks the point of attachment. C18 diacid = O=C(O)CCCCCCCCCCCCCCCCC(=O)*; γGlu = O=C(O)[C@H](CCC(=O)[*:2])N[*:1]; AEEA = NCCOCCOCC(=O)O; Aib = CC(C)(N)C(=O)O

Experimental findings from patent US20220048967A1 (published 2022) are described below.

B1: Example 271 (peptide)
peptide: Y[Aib]EGTFTSDYSILLDKK([AEEA-AEEA-γGlu-C18 diacid])AQ[Aib]EFIEYLIEGG-NH2
modifications: N-terminus assumed
SMILES: CC[C@H](C)[C@H](NC(=O)[C@H](CC(C)C)NC(=O)[C@H](Cc1ccc(O)cc1)NC(=O)[C@H](CCC(=O)O)NC(=O)[C@@H](NC(=O)[C@H](Cc1ccccc1)NC(=O)[C@H](CCC(=O)O)NC(=O)C(C)(C)NC(=O)[C@H](CCC(N)=O)NC(=O)[C@H](C)NC(=O)[C@H](CCCCNC(=O)COCCOCCNC(=O)COCCOCCNC(=O)CC[C@H](NC(=O)CCCCCCCCCCCCCCCCC(=O)O)C(=O)O)NC(=O)[C@H](CCCCN)NC(=O)[C@H](CC(=O)O)NC(=O)[C@H](CC(C)C)NC(=O)[C@H](CC(C)C)NC(=O)[C@@H](NC(=O)[C@H](CO)NC(=O)[C@H](Cc1ccc(O)cc1)NC(=O)[C@H](CC(=O)O)NC(=O)[C@H](CO)NC(=O)[C@@H](NC(=O)[C@H](Cc1ccccc1)NC(=O)[C@@H](NC(=O)CNC(=O)[C@H](CCC(=O)O)NC(=O)C(C)(C)NC(=O)[C@@H](N)Cc1ccc(O)cc1)[C@@H](C)O)[C@@H](C)O)[C@@H](C)CC)[C@@H](C)CC)C(=O)N[C@@H](CCC(=O)O)C(=O)NCC(=O)NCC(N)=O
Take B1: in test [1], the “hGIPR cAMP EC50 ratio” value is 0.614 and the “hGIPR cAMP Rel EC50” value is 334 pM. In test [2], the “hGLP1R cAMP EC50 ratio” value was 1.35 and the “hGLP1R cAMP Rel EC50” value turned out to be 35.2 pM.

B2: Example 272 (peptide)
peptide: Y[Aib]EGTFTSDYSILLDKK([AEEA-AEEA-γGlu-C18 diacid])AQ[Aib]AFIEYLIAGGPSSG-NH2
modifications: N-terminus assumed
SMILES: CC[C@H](C)[C@H](NC(=O)[C@H](CC(C)C)NC(=O)[C@H](Cc1ccc(O)cc1)NC(=O)[C@H](CCC(=O)O)NC(=O)[C@@H](NC(=O)[C@H](Cc1ccccc1)NC(=O)[C@H](C)NC(=O)C(C)(C)NC(=O)[C@H](CCC(N)=O)NC(=O)[C@H](C)NC(=O)[C@H](CCCCNC(=O)COCCOCCNC(=O)COCCOCCNC(=O)CC[C@H](NC(=O)CCCCCCCCCCCCCCCCC(=O)O)C(=O)O)NC(=O)[C@H](CCCCN)NC(=O)[C@H](CC(=O)O)NC(=O)[C@H](CC(C)C)NC(=O)[C@H](CC(C)C)NC(=O)[C@@H](NC(=O)[C@H](CO)NC(=O)[C@H](Cc1ccc(O)cc1)NC(=O)[C@H](CC(=O)O)NC(=O)[C@H](CO)NC(=O)[C@@H](NC(=O)[C@H](Cc1ccccc1)NC(=O)[C@@H](NC(=O)CNC(=O)[C@H](CCC(=O)O)NC(=O)C(C)(C)NC(=O)[C@@H](N)Cc1ccc(O)cc1)[C@@H](C)O)[C@@H](C)O)[C@@H](C)CC)[C@@H](C)CC)C(=O)N[C@@H](C)C(=O)NCC(=O)NCC(=O)N1CCC[C@H]1C(=O)N[C@@H](CO)C(=O)N[C@@H](CO)C(=O)NCC(N)=O
As for B2, in test [1], the “hGIPR cAMP EC50 ratio” value stood at 2.97 and the “hGIPR cAMP Rel EC50” value was found to be 46.4 pM. In test [2], the “hGLP1R cAMP EC50 ratio” value was 1.19 and the “hGLP1R cAMP Rel EC50” value was 43.5 pM.

B3: Example 275 (peptide)
peptide: Y[Aib]EGTFTSDYSILLDKK([AEEA-AEEA-γGlu-C18 diacid])AQPAFIEYLIEGG-NH2
modifications: N-terminus assumed
SMILES: CC[C@H](C)[C@H](NC(=O)[C@H](CC(C)C)NC(=O)[C@H](Cc1ccc(O)cc1)NC(=O)[C@H](CCC(=O)O)NC(=O)[C@@H](NC(=O)[C@H](Cc1ccccc1)NC(=O)[C@H](C)NC(=O)[C@@H]1CCCN1C(=O)[C@H](CCC(N)=O)NC(=O)[C@H](C)NC(=O)[C@H](CCCCNC(=O)COCCOCCNC(=O)COCCOCCNC(=O)CC[C@H](NC(=O)CCCCCCCCCCCCCCCCC(=O)O)C(=O)O)NC(=O)[C@H](CCCCN)NC(=O)[C@H](CC(=O)O)NC(=O)[C@H](CC(C)C)NC(=O)[C@H](CC(C)C)NC(=O)[C@@H](NC(=O)[C@H](CO)NC(=O)[C@H](Cc1ccc(O)cc1)NC(=O)[C@H](CC(=O)O)NC(=O)[C@H](CO)NC(=O)[C@@H](NC(=O)[C@H](Cc1ccccc1)NC(=O)[C@@H](NC(=O)CNC(=O)[C@H](CCC(=O)O)NC(=O)C(C)(C)NC(=O)[C@@H](N)Cc1ccc(O)cc1)[C@@H](C)O)[C@@H](C)O)[C@@H](C)CC)[C@@H](C)CC)C(=O)N[C@@H](CCC(=O)O)C(=O)NCC(=O)NCC(N)=O
B3: in test [1], the “hGIPR cAMP EC50 ratio” value is < 0.00741 and the “hGIPR cAMP Rel EC50” value was > 30000 pM. In test [2], the “hGLP1R cAMP EC50 ratio” value worked out at 0.00357 and the “hGLP1R cAMP Rel EC50” value is 14000 pM.

B4: Example 270 (peptide)
peptide: Y[Aib]EGTFTSDYSILLDKK([AEEA-AEEA-γGlu-C18 diacid])AQ[Aib]EFIEYLIEGGPSSG-NH2
modifications: N-terminus assumed
SMILES: CC[C@H](C)[C@H](NC(=O)[C@H](CC(C)C)NC(=O)[C@H](Cc1ccc(O)cc1)NC(=O)[C@H](CCC(=O)O)NC(=O)[C@@H](NC(=O)[C@H](Cc1ccccc1)NC(=O)[C@H](CCC(=O)O)NC(=O)C(C)(C)NC(=O)[C@H](CCC(N)=O)NC(=O)[C@H](C)NC(=O)[C@H](CCCCNC(=O)COCCOCCNC(=O)COCCOCCNC(=O)CC[C@H](NC(=O)CCCCCCCCCCCCCCCCC(=O)O)C(=O)O)NC(=O)[C@H](CCCCN)NC(=O)[C@H](CC(=O)O)NC(=O)[C@H](CC(C)C)NC(=O)[C@H](CC(C)C)NC(=O)[C@@H](NC(=O)[C@H](CO)NC(=O)[C@H](Cc1ccc(O)cc1)NC(=O)[C@H](CC(=O)O)NC(=O)[C@H](CO)NC(=O)[C@@H](NC(=O)[C@H](Cc1ccccc1)NC(=O)[C@@H](NC(=O)CNC(=O)[C@H](CCC(=O)O)NC(=O)C(C)(C)NC(=O)[C@@H](N)Cc1ccc(O)cc1)[C@@H](C)O)[C@@H](C)O)[C@@H](C)CC)[C@@H](C)CC)C(=O)N[C@@H](CCC(=O)O)C(=O)NCC(=O)NCC(=O)N1CCC[C@H]1C(=O)N[C@@H](CO)C(=O)N[C@@H](CO)C(=O)NCC(N)=O
Consider B4, for which, in test [1], the “hGIPR cAMP EC50 ratio” value was determined as 0.627 and the “hGIPR cAMP Rel EC50” value was 328 pM. In addition, in test [2], the “hGLP1R cAMP EC50 ratio” value amounted to 0.4 and the “hGLP1R cAMP Rel EC50” value came to 128 pM.

B5: Example 274 (peptide)
peptide: Y[Aib]EGTFTSDYSILLDKK([AEEA-AEEA-γGlu-C18 diacid])AQPAFIEYLIEGGPSSG-NH2
modifications: N-terminus assumed
SMILES: CC[C@H](C)[C@H](NC(=O)[C@H](CC(C)C)NC(=O)[C@H](Cc1ccc(O)cc1)NC(=O)[C@H](CCC(=O)O)NC(=O)[C@@H](NC(=O)[C@H](Cc1ccccc1)NC(=O)[C@H](C)NC(=O)[C@@H]1CCCN1C(=O)[C@H](CCC(N)=O)NC(=O)[C@H](C)NC(=O)[C@H](CCCCNC(=O)COCCOCCNC(=O)COCCOCCNC(=O)CC[C@H](NC(=O)CCCCCCCCCCCCCCCCC(=O)O)C(=O)O)NC(=O)[C@H](CCCCN)NC(=O)[C@H](CC(=O)O)NC(=O)[C@H](CC(C)C)NC(=O)[C@H](CC(C)C)NC(=O)[C@@H](NC(=O)[C@H](CO)NC(=O)[C@H](Cc1ccc(O)cc1)NC(=O)[C@H](CC(=O)O)NC(=O)[C@H](CO)NC(=O)[C@@H](NC(=O)[C@H](Cc1ccccc1)NC(=O)[C@@H](NC(=O)CNC(=O)[C@H](CCC(=O)O)NC(=O)C(C)(C)NC(=O)[C@@H](N)Cc1ccc(O)cc1)[C@@H](C)O)[C@@H](C)O)[C@@H](C)CC)[C@@H](C)CC)C(=O)N[C@@H](CCC(=O)O)C(=O)NCC(=O)NCC(=O)N1CCC[C@H]1C(=O)N[C@@H](CO)C(=O)N[C@@H](CO)C(=O)NCC(N)=O
For B5, in test [1], the “hGIPR cAMP EC50 ratio” value was < 0.00741 and the “hGIPR cAMP Rel EC50” value was > 30000 pM. Also, in test [2], the “hGLP1R cAMP EC50 ratio” value was determined as 0.00353 and the “hGLP1R cAMP Rel EC50” value was found to be 14500 pM.

B6: Example 273 (peptide)
peptide: Y[Aib]EGTFTSDYSILLDKK([AEEA-AEEA-γGlu-C18 diacid])AQ[Aib]AFIEYLIAGG-NH2
modifications: N-terminus assumed
SMILES: CC[C@H](C)[C@H](NC(=O)[C@H](CC(C)C)NC(=O)[C@H](Cc1ccc(O)cc1)NC(=O)[C@H](CCC(=O)O)NC(=O)[C@@H](NC(=O)[C@H](Cc1ccccc1)NC(=O)[C@H](C)NC(=O)C(C)(C)NC(=O)[C@H](CCC(N)=O)NC(=O)[C@H](C)NC(=O)[C@H](CCCCNC(=O)COCCOCCNC(=O)COCCOCCNC(=O)CC[C@H](NC(=O)CCCCCCCCCCCCCCCCC(=O)O)C(=O)O)NC(=O)[C@H](CCCCN)NC(=O)[C@H](CC(=O)O)NC(=O)[C@H](CC(C)C)NC(=O)[C@H](CC(C)C)NC(=O)[C@@H](NC(=O)[C@H](CO)NC(=O)[C@H](Cc1ccc(O)cc1)NC(=O)[C@H](CC(=O)O)NC(=O)[C@H](CO)NC(=O)[C@@H](NC(=O)[C@H](Cc1ccccc1)NC(=O)[C@@H](NC(=O)CNC(=O)[C@H](CCC(=O)O)NC(=O)C(C)(C)NC(=O)[C@@H](N)Cc1ccc(O)cc1)[C@@H](C)O)[C@@H](C)O)[C@@H](C)CC)[C@@H](C)CC)C(=O)N[C@@H](C)C(=O)NCC(=O)NCC(N)=O
Turning to B6, in test [1], the “hGIPR cAMP EC50 ratio” value amounted to 2.15 and the “hGIPR cAMP Rel EC50” value was found to be 79 pM. Also, in test [2], the “hGLP1R cAMP EC50 ratio” value amounted to 1.85 and the “hGLP1R cAMP Rel EC50” value worked out at 35.2 pM.
